Results as given in patent US20200407708A1.

Biological target: streptavidin (UniProt P22629)
Assay: gel shift with streptavidin

UniProt P22629, sequence (P22629 37-163 limits assumed): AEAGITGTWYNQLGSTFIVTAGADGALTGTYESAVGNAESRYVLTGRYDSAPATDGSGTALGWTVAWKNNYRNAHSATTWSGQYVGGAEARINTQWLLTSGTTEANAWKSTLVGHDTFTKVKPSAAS

biotinylated SpyCatcher002 (S50C)
percent of protein biotinylated (shifted in the presence of streptavidin): 90%
